Assays:
[1] = molecular target: CD3 (Cluster of Differentiation 3 protein), human, on T cells / Jurkat cells (human) (UniProt P07766); test: FACS, CD3+ T cells isolated from normal donors
[2] = molecular target: GPRC5D (G-protein coupled receptor family C group 5 member D), human, on multiple myeloma cell lines (human) (UniProt Q9NZD1); test: cell-based or functional assay
Chain of GPRC5D (G-protein coupled receptor family C group 5 member D), human, on multiple myeloma cell lines (human) (Q9NZD1 whole entry): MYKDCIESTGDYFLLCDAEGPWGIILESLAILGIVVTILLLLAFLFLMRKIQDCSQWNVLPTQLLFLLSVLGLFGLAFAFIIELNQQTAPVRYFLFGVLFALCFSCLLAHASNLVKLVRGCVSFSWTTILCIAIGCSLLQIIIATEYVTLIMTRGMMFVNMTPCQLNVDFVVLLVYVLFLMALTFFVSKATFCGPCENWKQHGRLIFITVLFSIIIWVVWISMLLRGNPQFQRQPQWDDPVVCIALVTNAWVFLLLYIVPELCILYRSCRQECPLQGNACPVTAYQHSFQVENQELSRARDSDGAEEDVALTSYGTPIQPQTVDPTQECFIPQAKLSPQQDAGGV

Chain of CD3 (Cluster of Differentiation 3 protein), human, on T cells / Jurkat cells (human) (P07766 23-207, chain 1 of 3): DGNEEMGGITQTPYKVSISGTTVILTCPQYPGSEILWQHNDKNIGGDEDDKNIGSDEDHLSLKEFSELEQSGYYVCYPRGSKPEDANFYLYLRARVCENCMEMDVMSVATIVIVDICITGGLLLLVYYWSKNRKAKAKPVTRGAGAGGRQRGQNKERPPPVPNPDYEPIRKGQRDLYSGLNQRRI
Chain of CD3 (Cluster of Differentiation 3 protein), human, on T cells / Jurkat cells (human) (P04234 22-171, chain 2 of 3, further chain): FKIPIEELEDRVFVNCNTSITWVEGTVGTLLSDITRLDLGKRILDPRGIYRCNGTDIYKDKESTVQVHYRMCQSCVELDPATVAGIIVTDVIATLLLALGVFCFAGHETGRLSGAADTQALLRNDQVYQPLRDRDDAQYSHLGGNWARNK
Chain of CD3 (Cluster of Differentiation 3 protein), human, on T cells / Jurkat cells (human) (P09693 23-182, chain 3 of 3, further chain): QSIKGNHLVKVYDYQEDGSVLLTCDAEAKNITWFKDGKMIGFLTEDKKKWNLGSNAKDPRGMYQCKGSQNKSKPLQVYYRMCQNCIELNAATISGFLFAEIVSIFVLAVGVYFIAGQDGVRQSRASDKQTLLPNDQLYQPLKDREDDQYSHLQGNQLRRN

IgG1 (antibody)
Top (MFI) [1]: 124 MFI | Top (%), T-Cell Dependent Cytotoxicity, MM.1S [2]: 6.08% | Top (RLU), luciferase assay, L363 [2]: 23.4 RLU | Top (RLU), luciferase assay, MM.1S [2]: 30.7 RLU | Top (RLU), luciferase assay, RPMI8226 [2]: 5.33 RLU
